For the test, the target named is matriptase (MT-SP1), human protease domain (human, UniProt Q9Y5Y6). Description: steady-state enzyme inhibition kinetics.
matriptase (MT-SP1), human protease domain, sequence (Q9Y5Y6 615-855): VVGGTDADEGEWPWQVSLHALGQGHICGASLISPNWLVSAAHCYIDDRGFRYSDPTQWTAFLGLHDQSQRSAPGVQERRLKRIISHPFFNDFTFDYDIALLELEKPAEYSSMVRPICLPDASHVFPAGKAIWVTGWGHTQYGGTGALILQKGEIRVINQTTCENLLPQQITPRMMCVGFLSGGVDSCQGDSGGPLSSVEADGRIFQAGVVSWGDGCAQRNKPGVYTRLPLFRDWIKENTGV

B1: Fab A11 H R100aA (Fab, V domains shown)
VH: EVQLVQSGGGLVKPGGSLRLSCAASGFTFSSYAMSWVRQAPGKGLEWVSAISGSGGSTYYADSVKGRFTISRDNSKNTLYLQMSSLRAEDTAVYYCVKDLGIAAARFVSGAFDIWGQGTMVTVSS
VL: EIVLTQSPGTLSLSPGERATLSCRASQSVSSSYLAWYQQKPGQAPRLLIYGASTRATGIPARFSGSGSGTDFTLTINSLEPEDFAVYYCQQRSNWPPGYTFGQGTKVEIT
With B1, affinity was put at a Ki of 1.5 nM.

B2: Fab A11 H R100bK (Fab, V domains shown)
VH: EVQLVQSGGGLVKPGGSLRLSCAASGFTFSSYAMSWVRQAPGKGLEWVSAISGSGGSTYYADSVKGRFTISRDNSKNTLYLQMSSLRAEDTAVYYCVKDLGIAARKFVSGAFDIWGQGTMVTVSS
VL: EIVLTQSPGTLSLSPGERATLSCRASQSVSSSYLAWYQQKPGQAPRLLIYGASTRATGIPARFSGSGSGTDFTLTINSLEPEDFAVYYCQQRSNWPPGYTFGQGTKVEIT
On to B2, for which the affinity corresponds to a Ki of 180 nM.

B3: Fab A11 H R100bA (Fab, V domains shown)
VH: EVQLVQSGGGLVKPGGSLRLSCAASGFTFSSYAMSWVRQAPGKGLEWVSAISGSGGSTYYADSVKGRFTISRDNSKNTLYLQMSSLRAEDTAVYYCVKDLGIAARAFVSGAFDIWGQGTMVTVSS
VL: EIVLTQSPGTLSLSPGERATLSCRASQSVSSSYLAWYQQKPGQAPRLLIYGASTRATGIPARFSGSGSGTDFTLTINSLEPEDFAVYYCQQRSNWPPGYTFGQGTKVEIT
Regarding B3, the Ki – broadly, a dissociation constant, usually derived from enzyme kinetics or from competition with a known ligand – is 180 nM.

B4: Fab S4 (Fab, V domains shown)
VH: EVQLVQSGAEVKKPGSSVKVSCKASGGTFSSYAISWVRQAGQGLEWMGGIIPIFGTANYAQKFQGRVTITADESTSTAYMELSSLRSEDTAVYYCARTFHIRRYRSGYYDKMDHWGQGTLVTVSS
VL: VLTQPPSVSGAPGQRVTISCSGSSSNIGSNYVSWYQQKPGTAPKLLIYDNNQRPSGVPDRFSGSKSGTSAVLAITGLQSEDEADYYCQSRDISQYVFGGGTKLTVL
Consider B4, for which the Ki was found to be 1 nM.

B5: Fab S4 H R100bK (Fab, V domains shown)
VH: EVQLVQSGAEVKKPGSSVKVSCKASGGTFSSYAISWVRQAGQGLEWMGGIIPIFGTANYAQKFQGRVTITADESTSTAYMELSSLRSEDTAVYYCARTFHIRRYKSGYYDKMDHWGQGTLVTVSS
VL: VLTQPPSVSGAPGQRVTISCSGSSSNIGSNYVSWYQQKPGTAPKLLIYDNNQRPSGVPDRFSGSKSGTSAVLAITGLQSEDEADYYCQSRDISQYVFGGGTKLTVL
Molecule B5 showed a Ki of 110 nM.

B6: Fab S4 H R100bA (Fab, V domains shown)
VH: EVQLVQSGAEVKKPGSSVKVSCKASGGTFSSYAISWVRQAGQGLEWMGGIIPIFGTANYAQKFQGRVTITADESTSTAYMELSSLRSEDTAVYYCARTFHIRRYASGYYDKMDHWGQGTLVTVSS
VL: VLTQPPSVSGAPGQRVTISCSGSSSNIGSNYVSWYQQKPGTAPKLLIYDNNQRPSGVPDRFSGSKSGTSAVLAITGLQSEDEADYYCQSRDISQYVFGGGTKLTVL
Turning to B6, the Ki is 93 nM.

For the origin of these results see article PMC3268006 (Journal of Molecular Biology, 2011).
